Data taken from the MegaScale stability set (Tsuboyama et al. 2023).

B1: r16_88_TrROS_Hall (parent)
chain: EVIELKIKFKTPEQREKLKEIAKKLNAEVVEEKDGEVIIRFKTPEQAERALKEAEKLGAEVEL

Variants of: B1
Assay: folding stability dG (cDNA display proteolysis); higher = more stable
Settings: PBS, room temperature

First: EVIELKIKFKTPEQREKLKEIAKKLNAEVVEEKDGEVIIRFKTPEQDERALKEAEKLGAEVEL
Second: EVIELKIKFKTPEQREKLKEQAKKLNAEVVEEKDGEVIIRFKTPEQAERALKEAEKLGAEVEL
The “folding stability dG” value of the first is lower: 3.16 kcal/mol for the first, 4.06 kcal/mol for the second.

First: EVIELKIKFKTPEQREKLKEIAKKLNAEVVEHKDGEVIIRFKTPEQAERALKEAEKLGAEVEL
Second: EVIELKIKFKTPEQREKLKEIAKKLNAEVVEAKDGEVIIRFKTPEQAERALKEAEKLGAEVEL
The “folding stability dG” value of the first is higher: 4.49 kcal/mol for the first, 4.34 kcal/mol for the second.

Going from EVIELKAKFKTPEQREKLKEIAKKLNAEVVEEKDGEVIIRFKTPEQAERALKEAEKLGAEVEL to EVIELKIKFKTPEQREKLKEIAKKLNAEVVEEKDGEVIIRFKTPEQAERTLKEAEKLGAEVEL, the “folding stability dG” value falls from 4.69 kcal/mol to 4.26 kcal/mol.

Compared with EVIELKIKFKTPEQREKLKEIAKKLNAEVVEEKDGEVIIRFKTPEQAERCLKEAEKLGAEVEL, EVIELKIKFKTPEQREKLKEIAKKLNAEVVEEKDGEVIIRFKTPEQAERALKEAEKLGAEVES is higher in “folding stability dG” value: 4.36 kcal/mol for the first, 4.39 kcal/mol for the second.

Compared with EVIELKIKFKTPEQREKLKEIAKKLNAEVVEEKDGEVIIRFKTPEQAERALKYAEKLGAEVEL, EVIELKIKFKTPEQREKLKEIAKKLNAEVVEEKDGEVIIRFKTPEQAERALKQAEKLGAEVEL is higher in “folding stability dG” value: 4.3 kcal/mol for the first, 4.42 kcal/mol for the second.

First: EVIELKIKFKTPEQREKLKEIAKKLNAEVVEEKDGEVIIRFKTPEQAERALKWAEKLGAEVEL
Second: EVIELKIKFKTPEQREKLKEIAKKLNAEVVEEKDGEVIIRFKTPEQAERALKRAEKLGAEVEL
The “folding stability dG” value of the first is higher: 4.37 kcal/mol for the first, 4.03 kcal/mol for the second.

First: EVWELKIKFKTPEQREKLKEIAKKLNAEVVEEKDGEVIIRFKTPEQAERALKEAEKLGAEVEL
Second: EVDELKIKFKTPEQREKLKEIAKKLNAEVVEEKDGEVIIRFKTPEQAERALKEAEKLGAEVEL
The “folding stability dG” value of the first is higher: 4.71 kcal/mol for the first, 4.52 kcal/mol for the second.

First: EVIELKIKFKTPEQREKLKEIAKILNAEVVEEKDGEVIIRFKTPEQAERALKEAEKLGAEVEL
Second: EVIELKIKFKTPEQREKLKEIAKYLNAEVVEEKDGEVIIRFKTPEQAERALKEAEKLGAEVEL
The “folding stability dG” value of the first is lower: 4.49 kcal/mol for the first, 4.84 kcal/mol for the second.

Going from EVIELKIKFKTPEQREKLKEIAKKLNAEVVEEKDGEVIIRFKIPEQAERALKEAEKLGAEVEL to EVIELKIKFKTPEQREKLKEIAKKLNAEVVEEKDGEVIIRWKTPEQAERALKEAEKLGAEVEL, the “folding stability dG” value falls from 4.48 kcal/mol to 4 kcal/mol.

Compared with EVIELKIKFKTPEQREKLKEIAKKLNAYVVEEKDGEVIIRFKTPEQAERALKEAEKLGAEVEL, EVIELKIKFKTPEQREKLKEIAKKLNAEVVEEKDGEVIIRFKTPEQAERALEEAEKLGAEVEL is lower in “folding stability dG” value: 4.36 kcal/mol for the first, 4.07 kcal/mol for the second.

EVIELKIKFKTPEQREKLKEIAKKLNAEVVEEKDGEVIIRFKTPEQAERALHEAEKLGAEVEL and EVIELKIKFKTLEQREKLKEIAKKLNAEVVEEKDGEVIIRFKTPEQAERALKEAEKLGAEVEL are the same in “folding stability dG” value: 4.31 kcal/mol for the first, 4.31 kcal/mol for the second.

First: EVIELKIKFKTNEQREKLKEIAKKLNAEVVEEKDGEVIIRFKTPEQAERALKEAEKLGAEVEL
Second: EVIELKIKFKTPEQREKLKEIAKKLNAEVVEEKDGEVIIRFKTPEQAERALKEAEKLGYEVEL
The “folding stability dG” value of the first is lower: 4.23 kcal/mol for the first, 4.5 kcal/mol for the second.

Going from EVIELKIKFKVPEQREKLKEIAKKLNAEVVEEKDGEVIIRFKTPEQAERALKEAEKLGAEVEL to EVIELKIPFKTPEQREKLKEIAKKLNAEVVEEKDGEVIIRFKTPEQAERALKEAEKLGAEVEL, the “folding stability dG” value falls from 4.48 kcal/mol to 4.21 kcal/mol.

Going from EVIELKITFKTPEQREKLKEIAKKLNAEVVEEKDGEVIIRFKTPEQAERALKEAEKLGAEVEL to EVIELKIIFKTPEQREKLKEIAKKLNAEVVEEKDGEVIIRFKTPEQAERALKEAEKLGAEVEL, the “folding stability dG” value falls from 4.33 kcal/mol to 4.12 kcal/mol.

First: EVIELKIDFKTPEQREKLKEIAKKLNAEVVEEKDGEVIIRFKTPEQAERALKEAEKLGAEVEL
Second: EVIELKIKFKTPEQREKLKEIAKKLNAEVVEEKDGEVIIRFKTPEQAERAGKEAEKLGAEVEL
The “folding stability dG” value of the first is lower: 3.72 kcal/mol for the first, 4.45 kcal/mol for the second.

Compared with EVIELKIKFKTPEQREKLKEIAKKLNAEMVEEKDGEVIIRFKTPEQAERALKEAEKLGAEVEL, EVIELKIKFKTPEQREKLKEIAKKLNAECVEEKDGEVIIRFKTPEQAERALKEAEKLGAEVEL is higher in “folding stability dG” value: 4.4 kcal/mol for the first, 4.49 kcal/mol for the second.

Compared with EVIELKIKFKTPEQREKLKEIAKKLNAEVVEEKDGEVIIRFKTPEQAERALKEAEKVGAEVEL, EVIELKIKFKTPEQREKLKEIAKKLNAEVVEEKDGEVIIRFKTNEQAERALKEAEKLGAEVEL is higher in “folding stability dG” value: 4.5 kcal/mol for the first, 4.55 kcal/mol for the second.

Compared with EVIELKIKFKTPEQREKLKEIAKKLNAEVVEEKDGEVIIRFKTPAQAERALKEAEKLGAEVEL, EVIELKIKFKTPEQREKLKEIAKKLNAEVVEEKDGEVIIRFKTPNQAERALKEAEKLGAEVEL is higher in “folding stability dG” value: 4.33 kcal/mol for the first, 4.39 kcal/mol for the second.

Going from EVIELPIKFKTPEQREKLKEIAKKLNAEVVEEKDGEVIIRFKTPEQAERALKEAEKLGAEVEL to EVIELKIKFKTPEQREKLKEIAKKLNAEVVEEKDGEVIIRFKTPEQAERALKEAVKLGAEVEL, the “folding stability dG” value rises from 3.96 kcal/mol to 4.51 kcal/mol.

Going from EVIELKIKFKTPEQREKLKEIAKKLNAEVVEEKDGEVIIRFKTPEQAERALKEARKLGAEVEL to EGIELKIKFKTPEQREKLKEIAKKLNAEVVEEKDGEVIIRFKTPEQAERALKEAEKLGAEVEL, the “folding stability dG” value falls from 4.57 kcal/mol to 4.48 kcal/mol.

Going from EVIECKIKFKTPEQREKLKEIAKKLNAEVVEEKDGEVIIRFKTPEQAERALKEAEKLGAEVEL to EVIELKIKFKTPEQREKLKEIAKKLNFEVVEEKDGEVIIRFKTPEQAERALKEAEKLGAEVEL, the “folding stability dG” value rises from 4.29 kcal/mol to 4.4 kcal/mol.

For EVIELKIKFKTPEQPEKLKEIAKKLNAEVVEEKDGEVIIRFKTPEQAERALKEAEKLGAEVEL, the “folding stability dG” value was 3.44 kcal/mol.
